Test results reported in paper PMC12077149, “Evolution of PqsE as a Pseudomonas aeruginosa-specific regulator of LuxR-type receptors: insights from Pseudomonas and Burkholderia” (mBio, 2025).

Tests used:
[1] = system: CCCC(=O)Oc1ccc2c(C)cc(=O)oc2c1; assay: purified protein; conditions: 50 mM Tricine, 0.01% Triton X-100; 2 µM enzyme; substrate up to 8 µM
[2] = system: CC(=O)CC(=O)SCCNC(=O)CCNC(=O)[C@H](O)C(C)(C)COP(=O)(O)OP(=O)(O)OC[C@H]1O[C@@H](n2cnc3c(N)ncnc32)[C@H](O)[C@@H]1OP(=O)(O)O; assay: purified protein; conditions: 0.1 M Tris-HCl pH 8.0, 2 mM DTNB, 2 µM enzyme, substrate up to 1 mM

PqsE (Pseudomonas aeruginosa UCBPP-PA14)
Km [1]: 8.1 ± 0.1 µM
kcat [1]: 0.0197 ± 0.09 s⁻¹
kcat/Km [1]: 2400 M⁻¹ s⁻¹
Km [2]: 3200 ± 200 µM
kcat [2]: 0.438 ± 0.05 s⁻¹
kcat/Km [2]: 140 M⁻¹ s⁻¹
